Patent US20240101638A1 (CURRUS BIOLOGICS, published 2024)
Several values for one entry are separate records, joined by “and”; a condition that tells them apart may be missing. Equal entries are not always repeated.

Biological target: T1, Mesothelin (Homo sapiens (Human), UniProt Q13421 296-598)
T1 construct: Soluble analyte in SPR at 0.15-111 nM
Experiment: SPR, antibody as ligand, mesothelin as analyte

T1 sequence (Q13421 other isoform, or with tags, fused parts or gaps limits assumed): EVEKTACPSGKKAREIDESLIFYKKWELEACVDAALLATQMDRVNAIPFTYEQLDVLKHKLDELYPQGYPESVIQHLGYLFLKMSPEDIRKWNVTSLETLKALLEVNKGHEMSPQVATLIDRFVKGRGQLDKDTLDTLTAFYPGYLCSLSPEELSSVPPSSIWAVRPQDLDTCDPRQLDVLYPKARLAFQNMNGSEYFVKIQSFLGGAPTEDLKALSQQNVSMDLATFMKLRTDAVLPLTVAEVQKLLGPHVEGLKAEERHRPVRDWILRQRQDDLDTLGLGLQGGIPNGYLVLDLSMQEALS

Kd: 0.912 nM and 0.658 nM
koff: 0.000189 s⁻¹ and 0.000132 s⁻¹
kon: 207000 M⁻¹ s⁻¹ and 201000 M⁻¹ s⁻¹
B1: 7B1 IgG1 LALA anti-mesothelin antibody (antibody, V domains shown)
VH: EVHLVESGGGLVQPGGSLRLSCAASGFTFSRYWMSWVRQAQGKGLEWVASIKQAGSEKTYVDSVKGRFTISRDNAKNSLSLQMNSLRAEDTAVYYCAREGAYYYDSASYYPYYYYYSMDVWGQGTTVTVSS
VL: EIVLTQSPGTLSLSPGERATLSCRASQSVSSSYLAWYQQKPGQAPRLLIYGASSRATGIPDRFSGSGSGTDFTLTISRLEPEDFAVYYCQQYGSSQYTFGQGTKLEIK
notes: Tested as IgG1 with LALA mutations; It was the immobilised ligand in the SPR; two samples were measured; also called 7B1 IgG1 LALA AA cAb7385-10.16; 7b1 IgG1 LALA - Sample 1
